Consider 116 sequences from the supplement of paper PMC10724198.

± gives the standard deviation of the averaged measurements.
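Also: PSI is a weighted mean of sequencing reads over stability bins, variants kept only with over 10 reads, mCherry proximal and sfGFP distal, peptide attached via GGGS linker.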

The subject of the data set is Saccharomyces cerevisiae. The experiment in a line: protein stability index of tFT-peptide fusion (C-terminal peptide) (PSI (0-1 scale)); higher = more stable (slower turnover). The following applies: genetic background: wild type; temperature: 30 C.
Turning to KKKKKKKNKKRK, the protein stability index turned out to be 0.683 ± 0.019.

In turn, KKKKKKKNRETK had a protein stability index of 0.655 ± 0.042.

In turn, KKKKKKKTKKKK showed a protein stability index of 0.78 ± 0.034.

For the sequence KKKKKKQEKNKK, the protein stability index was 0.694 ± 0.042.

With KKKKKKRQKNTK, the protein stability index came out at 0.691 ± 0.03.

Sequence KKKKKSKIEKKD displayed a protein stability index of 0.725 ± 0.077.

In turn, KKKKKSKKKTKT gave a protein stability index of 0.668 ± 0.0037.

In the case of KKKKKSKKQKKK, the protein stability index is 0.733 ± 0.019.

As for KKKKKTKNIKKT, the protein stability index turned out to be 0.794 ± 0.059.

Take KKKKQKIKKQRK: the protein stability index is 0.63 ± 0.00095.

The sequence KKKKQKKKRKRE yielded a protein stability index of 0.718 ± 0.028.

KKKKRKNNITKK returned a protein stability index of 0.74 ± 0.15.

KKKKTEKKKTKQ came in with a protein stability index of 0.656 ± 0.035.

On to KKKKVKKQRISR, for which the protein stability index is 0.713 ± 0.11.

On to KKKMINEKKKKD, for which the protein stability index was found to be 0.701 ± 0.025.

Take KKKNKNENKKPQ: the protein stability index is 0.667 ± 0.021.

The sequence KKKNTRKTTNIK displayed a protein stability index of 0.708 ± 0.026.

The sequence KKKQKKVSNKQT displayed a protein stability index of 0.699 ± 0.044.

In turn, KKKRIRNEYKKR yielded a protein stability index of 0.68 ± 0.0071.

As for KKKTSKVIIREG, the protein stability index was found to be 0.689 ± 0.0085.

For KKKVAITPQQTR, the protein stability index was determined as 0.685 ± 0.23.

KKMKKASTAKEL gave a protein stability index of 0.678 ± 0.025.

On to KKNAHANKIGND, for which the protein stability index was 0.639 ± 0.086.

Regarding KKNEKKNRKKKN, the protein stability index is 0.71 ± 0.022.

KKNKKNQKKKNK displayed a protein stability index of 0.663 ± 0.0072.

Turning to KKNKLKDSIKNI, the protein stability index turned out to be 0.663 ± 0.016.

KKNKRMKVREKK yielded a protein stability index of 0.609 ± 0.034.

As to KKNLKTKKRQNI, the protein stability index came to 0.66 ± 0.01.

In turn, KKNNKKNNKKKQ came in with a protein stability index of 0.678 ± 0.078.

The sequence KKNQKKNEKHIK came in with a protein stability index of 0.689 ± 0.041.

The sequence KKQKKKKKRNRK registered a protein stability index of 0.654 ± 0.028.

KKRKKKEKKRKK showed a protein stability index of 0.773 ± 0.17.

For the sequence KKRRTKKENNNI, the protein stability index was 0.687 ± 0.0089.

In the case of KKSRLRNNPADC, the protein stability index stood at 0.7 ± 0.031.

Consider KKTKNKKRIIRT, for which the protein stability index is 0.724 ± 0.051.

Consider KKTLWRKITMQK, for which the protein stability index was 0.7193 ± 0.0057.

KKTYQQKIEEVV showed a protein stability index of 0.782 ± 0.14.

In turn, KKVKMIKEIRRG returned a protein stability index of 0.745 ± 0.044.

On to KKVLKFTKKKKP, for which the protein stability index was determined as 0.599 ± 0.048.

As to KLGNVRGPSYSL, the protein stability index came to 0.709 ± 0.056.

The sequence KLGRIWNFTLSA had a protein stability index of 0.6284 ± 0.001.

In turn, KLKKKKISNVEN registered a protein stability index of 0.612 ± 0.0081.

In turn, KLNMLLYNNQEK yielded a protein stability index of 0.631 ± 0.039.

In turn, KLREYGGLPISC had a protein stability index of 0.677 ± 0.0087.

KMKRSNADAVEP returned a protein stability index of 0.678 ± 0.03.

On to KNAAGERGGKEG, for which the protein stability index was 0.644 ± 0.044.

The sequence KNCKEQRKTIQI had a protein stability index of 0.713 ± 0.026.

With KNDRKLIKRILK, the protein stability index came out at 0.728 ± 0.093.

With KNEKNERKIATQ, the protein stability index amounted to 0.682 ± 0.016.

KNESIRKKKPKK showed a protein stability index of 0.734 ± 0.033.

KNGANREEYITK yielded a protein stability index of 0.686 ± 0.028.

On to KNIERKKNTKIR, for which the protein stability index was determined as 0.714 ± 0.017.

The sequence KNIRKITHGIGN had a protein stability index of 0.623 ± 0.072.

As for KNKKKKKRRTRK, the protein stability index came out at 0.732 ± 0.067.

Sequence KNQLKKPINKSK came in with a protein stability index of 0.734 ± 0.13.

KNRKSPSMNSKE registered a protein stability index of 0.716 ± 0.017.

For the sequence KNTKKKNRKKKN, the protein stability index stood at 0.7419 ± 0.0026.

KNTNQKKKKKNT displayed a protein stability index of 0.718 ± 0.044.

Regarding KNVKETERKVTS, the protein stability index stood at 0.565 ± 0.023.

For KPKKKKKDEQTI, the protein stability index turned out to be 0.672 ± 0.035.

The sequence KPPNRQCLYDAL returned a protein stability index of 0.721 ± 0.094.

For the sequence KPVGLPGRIRLG, the protein stability index is 0.751 ± 0.02.

The sequence KQKKKRKSRRKK returned a protein stability index of 0.6504 ± 0.0033.

KQKKTQKIYTMR came in with a protein stability index of 0.728 ± 0.059.

KQKNKTNKKNTK registered a protein stability index of 0.661 ± 0.025.

Sequence KQLEKRKRIIEE had a protein stability index of 0.7644 ± 0.0035.

KQLPVLSAEVLS gave a protein stability index of 0.648 ± 0.035.

As to KQNAHKKINKYE, the protein stability index worked out at 0.75 ± 0.02.

As to KQSNGEFNIATP, the protein stability index was found to be 0.648 ± 0.046.

On to KQTEKEPKKGES, for which the protein stability index is 0.7123 ± 0.0028.

Sequence KRCHPVYVRGGG displayed a protein stability index of 0.568 ± 0.013.

In turn, KRDFILFSASVD registered a protein stability index of 0.627 ± 0.051.

In turn, KRDVRRLYRKRV showed a protein stability index of 0.7052 ± 0.0068.

The sequence KRGKKNEESRRD yielded a protein stability index of 0.68 ± 0.085.

KRIVGIFINRKI showed a protein stability index of 0.586 ± 0.0096.

KRKEKKKEKRRK came in with a protein stability index of 0.714 ± 0.022.

On to KRKKKKEQTKKK, for which the protein stability index amounted to 0.752 ± 0.11.

KRKKKRQKNKGK came in with a protein stability index of 0.766 ± 0.13.

For the sequence KRKKQERKREKK, the protein stability index worked out at 0.692 ± 0.05.

Turning to KRKKQKKNQQNR, the protein stability index was determined as 0.682 ± 0.019.

With KRKRKKKSEKEE, the protein stability index came to 0.652 ± 0.025.

On to KRLKRKSNLERE, for which the protein stability index was determined as 0.69 ± 0.047.

In turn, KRMKNELDIGMK displayed a protein stability index of 0.7049 ± 0.0032.

For KRNIKKKKTNLR, the protein stability index is 0.675 ± 0.087.

KRNKDFIYTYRL showed a protein stability index of 0.696 ± 0.013.

For KRQWAGRDGEGR, the protein stability index was 0.662 ± 0.0068.

KRRGECEGGRRG showed a protein stability index of 0.672 ± 0.044.

As for KRRKKTQESSKA, the protein stability index turned out to be 0.726 ± 0.049.

On to KRSNKGAKKKGK, for which the protein stability index was determined as 0.672 ± 0.041.

KRTEHTHDRKIK displayed a protein stability index of 0.721 ± 0.034.

KSILTRTVNSNQ returned a protein stability index of 0.6592 ± 0.0031.

The sequence KSKKDQKKNHKK registered a protein stability index of 0.712 ± 0.0076.

Turning to KSNRCVQSKRQQ, the protein stability index was 0.686 ± 0.037.

Regarding KTERRKEENTGE, the protein stability index is 0.665 ± 0.041.

Consider KTGIQTEIRYKE, for which the protein stability index worked out at 0.63727 ± 0.00029.

On to KTHKKRYRKGNT, for which the protein stability index amounted to 0.725 ± 0.12.

In turn, KTKKENGRGEKN showed a protein stability index of 0.697 ± 0.04.

For KTKKIWKKKSNI, the protein stability index turned out to be 0.713 ± 0.011.

Regarding KTKRMKSIKKSK, the protein stability index is 0.7099 ± 0.0046.

In turn, KTNLSNRKKHKG yielded a protein stability index of 0.653 ± 0.051.

Sequence KTRTGMWDEQGV came in with a protein stability index of 0.701 ± 0.016.

Consider KTTSRIKEIIQK, for which the protein stability index was 0.606 ± 0.017.

Regarding KVEQLPAREAPC, the protein stability index was found to be 0.6556 ± 0.0039.

KVFHTDSNPNNK: the protein stability index was determined as 0.663 ± 0.016.

KVGKRQGFSVYV yielded a protein stability index of 0.684 ± 0.022.

As for KVLRKQRLKGRE, the protein stability index was found to be 0.5238 ± 0.0015.

For the sequence KVMSLACRLTSE, the protein stability index is 0.843 ± 0.11.

KVPNEIKRYVFI displayed a protein stability index of 0.66446 ± 8.8e-05.

Sequence KYIGHSENATSK returned a protein stability index of 0.71 ± 0.067.

The sequence KYKVGLWHRVAK came in with a protein stability index of 0.68 ± 0.16.

In turn, LADFGREKNSLG showed a protein stability index of 0.703 ± 0.0068.

Sequence LADLSAPAPCLP displayed a protein stability index of 0.689 ± 0.091.

Regarding LAGLNDSVRRAV, the protein stability index amounted to 0.749 ± 0.036.

Regarding LAGLRLPNDLGP, the protein stability index was found to be 0.712 ± 0.059.

With LAGSHSRTQGRT, the protein stability index stood at 0.695 ± 0.037.

LAGVSSPLPPPP registered a protein stability index of 0.685 ± 0.025.
